For seven molecules, Kd, koff and kon results are on record in EP4725969A1 (Latticon (Suzhou) Biopharmaceuticals Co., Ltd., dated 2024).

Sequences and labels used below:
B1: 2126-Hu-H22 (antibody, IgG1, V domains shown)
VH: QVQLVQSGGELKKPGASVKVSCKASGYTFTDYSMHWVRQAPGQGLEWMGWINTETGEPTYADDFKGRFVFSLDTSVSTAYLQISSLKAEDTAVYFCVRVGRYDYAMDYWGQGTTVTVSS
VL: DIQMTQSPSSLSASVGDRVTITCKASQDVYTAVAWYQQKPGKAPKLLINSASYRYTGVPSRFSGSGSGTDFTLTISSLQPEDFATYYCQQHYSTPPTFGGGTKVEIK
notes: IgG1/Cκ
B2: 2126-Hu-H28 (antibody, IgG1, V domains shown)
VH: QVQLVQSGSELKKPGASVKVSCKASGYTFTDYSMHWVRQAPGQGLEWMGWINTYTGEPTYADDFKGRFVFSLDTSVSTAYLQISSLKAEDTAVYFCVRVGRYDYAMDYWGQGTTVTVSS
VL: DIQMTQSPSSLSASVGDRVTITCKASQDVYTAVAWYQQKPGKAPKLLINSASYRYTGVPSRFSGSGSGTDFTLTISSLQPEDFATYYCQQHYSTPPTFGGGTKVEIK
notes: IgG1/Cκ
B3: 2126-Hu-H25 (antibody, IgG1, V domains shown)
VH: QVQLVQSGSELKKPGASVKVSCKASGYTFTDYSMHWVRQAPGQGLEWMGWINTNTGEPTYADDFKGRFVFSLDTSVSTAYLQISSLKAEDTAVYFCVRVGRYDYAMDYWGQGTTVTVSS
VL: DIQMTQSPSSLSASVGDRVTITCKASQDVYTAVAWYQQKPGKAPKLLINSASYRYTGVPSRFSGSGSGTDFTLTISSLQPEDFATYYCQQHYSTPPTFGGGTKVEIK
notes: IgG1/Cκ
B4: 2126-Hu-H27 (antibody, IgG1, V domains shown)
VH: QVQLVQSGSELKKPGASVKVSCKASGYTFTDYSMHWVRQAPGQGLEWMGWINTGTGEPTYADDFKGRFVFSLDTSVSTAYLQISSLKAEDTAVYFCVRVGRYDYAMDYWGQGTTVTVSS
VL: DIQMTQSPSSLSASVGDRVTITCKASQDVYTAVAWYQQKPGKAPKLLINSASYRYTGVPSRFSGSGSGTDFTLTISSLQPEDFATYYCQQHYSTPPTFGGGTKVEIK
notes: IgG1/Cκ
B5: 2126-Hu-H24 (antibody, IgG1, V domains shown)
VH: QVQLVQSGSELKKPGASVKVSCKASGYTFTDYAMHWVRQAPGQGLEWMGWINTETGEPTYADDFKGRFVFSLDTSVSTAYLQISSLKAEDTAVYFCVRVGRYDYAMDYWGQGTTVTVSS
VL: DIQMTQSPSSLSASVGDRVTITCKASQDVYTAVAWYQQKPGKAPKLLINSASYRYTGVPSRFSGSGSGTDFTLTISSLQPEDFATYYCQQHYSTPPTFGGGTKVEIK
notes: IgG1/Cκ
B6: 2126-Hu-H23 (antibody, IgG1, V domains shown)
VH: QVQLVQSGSELKKPGASLKVSCKASGYTFTDYSMHWVRQAPGQGLEWMGWINTETGEPTYADDFKGRFVFSLDTSVSTAYLQISSLKAEDTAVYFCVRVGRYDYAMDYWGQGTTVTVSS
VL: DIQMTQSPSSLSASVGDRVTITCKASQDVYTAVAWYQQKPGKAPKLLINSASYRYTGVPSRFSGSGSGTDFTLTISSLQPEDFATYYCQQHYSTPPTFGGGTKVEIK
notes: IgG1/Cκ
B7: 2126-Hu-H26 (antibody, IgG1, name in Kabat numbering, V domains shown)
VH: QVQLVQSGSELKKPGASVKVSCKASGYTFTDYSMHWVRQAPGQGLEWMGWINTDTGEPTYADDFKGRFVFSLDTSVSTAYLQISSLKAEDTAVYFCVRVGRYDYAMDYWGQGTTVTVSS
VL: DIQMTQSPSSLSASVGDRVTITCKASQDVYTAVAWYQQKPGKAPKLLINSASYRYTGVPSRFSGSGSGTDFTLTISSLQPEDFATYYCQQHYSTPPTFGGGTKVEIK
notes: IgG1/Cκ

This assay addresses T1, recombinant human HER2 extracellular domain protein (human, UniProt P04626 23-652).
T1 construct: range 23-652; Range is printed for the immunogen/panning protein; also called ErbB2; recombinant HER2 protein
As to the kind of experiment: BLI, Protein A capture.
For the molecule B1, the Kd is 5.38 nM, the koff is 0.000543 s⁻¹ and the kon was 101000 M⁻¹ s⁻¹.
On the same counts, the results for B2 are 3.08 nM, 0.00035 s⁻¹ and 114000 M⁻¹ s⁻¹.
The matching figures for B3: 7.57 nM, 0.000749 s⁻¹ and 99000 M⁻¹ s⁻¹.
Turning to B4, the Kd is 1.67 nM, the off-rate constant (koff) was determined as 0.000164 s⁻¹ and the kon worked out at 97900 M⁻¹ s⁻¹.
The matching figures for B5: 7.7 nM, 0.00083 s⁻¹ and 108000 M⁻¹ s⁻¹.
In the case of B6, the Kd was 5.9 nM, the koff is 0.000623 s⁻¹ and the association rate constant (kon) stood at 106000 M⁻¹ s⁻¹.
On the same counts, the results for B7 are 11.1 nM, 0.00119 s⁻¹ and 107000 M⁻¹ s⁻¹.
